Laboratory results taken from article PMC6151440.

Key:
Test in all cases: NMR
Settings in all cases: folded, free wild-type ubiquitin
Asp39 = Asp39 (UniProt position 39, EGIPPDQQRLI)
Asp58 = Asp58 (UniProt position 58, GRTLSDYNIQK)
Glu16 = Glu16 (UniProt position 16, KTITLEVEPSD)
Asp32 = Asp32 (UniProt position 32, KAKIQDKEGIP)
Asp21 = Asp21 (UniProt position 21, EVEPSDTIENV)
Glu34 = Glu34 (UniProt position 34, KIQDKEGIPPD)
Glu64 = Glu64 (UniProt position 64, YNIQKESTLHL)
Glu51 = Glu51 (UniProt position 51, AGKQLEDGRTL)
Glu18 = Glu18 (UniProt position 18, ITLEVEPSDTI)
[1] = 298 K, not stated (20 mM d-Tris-HCl buffer, no added salt stated), 20 mM d-Tris-HCl, 1-1.5 mM
[2] = 303 K, 100 mM KCl, cited from earlier work

## Ubiquitin (wild type) (not stated (Homo sapiens inferred))
Asp39; [1]
  pKa: 3.52 ± 0.02
Asp39; [2]
  pKa: 3.6
Asp58; [1]
  pKa: 3.47 ± 0.02
Asp58; [2]
  pKa: 3.7
Glu16; [1]
  pKa: 4.07 ± 0.02
Glu16; [2]
  pKa: 3.9
Asp32; [1]
  pKa: 3.68 ± 0.03
Asp32; [2]
  pKa: 3.8
Asp21; [1]
  pKa: 2.98 ± 0.03
Asp21; [2]
  pKa: 3.1
Glu34; [1]
  pKa: 4.16 ± 0.03
Glu34; [2]
  pKa: 4.5
Glu64; [1]
  pKa: 4.26 ± 0.02
Glu64; [2]
  pKa: 4.5
Glu51; [1]
  pKa: 3.69 ± 0.02
Glu51; [2]
  pKa: 3.8
Glu18; [1]
  pKa: 4.26 ± 0.03
Glu18; [2]
  pKa: 4.3
